Here are results for 1 molecule from PMC10516938, “Conformational dynamics of cohesin/Scc2 loading complex are regulated by Smc3 acetylation and ATP binding” (Nature Communications, 2023).

Numbering of substitutions follows the chain as printed.

Holding throughout (assay): cross-linking; in vivo BMOE cross-link of cysteine pairs in exponentially grown yeast cells (on ice, 6 min); Scc1-PK immunoprecipitated, western blot
Common to all, as to conditions: partners not purified

One assay addresses T1, Smc3 R1222C (S. cerevisiae, UniProt P47037 1-1230, R1222C).
T1 construct: Smc3, S. cerevisiae; source: S. cerevisiae W303, in vivo, whole-cell extract
T1 sequence (looked up): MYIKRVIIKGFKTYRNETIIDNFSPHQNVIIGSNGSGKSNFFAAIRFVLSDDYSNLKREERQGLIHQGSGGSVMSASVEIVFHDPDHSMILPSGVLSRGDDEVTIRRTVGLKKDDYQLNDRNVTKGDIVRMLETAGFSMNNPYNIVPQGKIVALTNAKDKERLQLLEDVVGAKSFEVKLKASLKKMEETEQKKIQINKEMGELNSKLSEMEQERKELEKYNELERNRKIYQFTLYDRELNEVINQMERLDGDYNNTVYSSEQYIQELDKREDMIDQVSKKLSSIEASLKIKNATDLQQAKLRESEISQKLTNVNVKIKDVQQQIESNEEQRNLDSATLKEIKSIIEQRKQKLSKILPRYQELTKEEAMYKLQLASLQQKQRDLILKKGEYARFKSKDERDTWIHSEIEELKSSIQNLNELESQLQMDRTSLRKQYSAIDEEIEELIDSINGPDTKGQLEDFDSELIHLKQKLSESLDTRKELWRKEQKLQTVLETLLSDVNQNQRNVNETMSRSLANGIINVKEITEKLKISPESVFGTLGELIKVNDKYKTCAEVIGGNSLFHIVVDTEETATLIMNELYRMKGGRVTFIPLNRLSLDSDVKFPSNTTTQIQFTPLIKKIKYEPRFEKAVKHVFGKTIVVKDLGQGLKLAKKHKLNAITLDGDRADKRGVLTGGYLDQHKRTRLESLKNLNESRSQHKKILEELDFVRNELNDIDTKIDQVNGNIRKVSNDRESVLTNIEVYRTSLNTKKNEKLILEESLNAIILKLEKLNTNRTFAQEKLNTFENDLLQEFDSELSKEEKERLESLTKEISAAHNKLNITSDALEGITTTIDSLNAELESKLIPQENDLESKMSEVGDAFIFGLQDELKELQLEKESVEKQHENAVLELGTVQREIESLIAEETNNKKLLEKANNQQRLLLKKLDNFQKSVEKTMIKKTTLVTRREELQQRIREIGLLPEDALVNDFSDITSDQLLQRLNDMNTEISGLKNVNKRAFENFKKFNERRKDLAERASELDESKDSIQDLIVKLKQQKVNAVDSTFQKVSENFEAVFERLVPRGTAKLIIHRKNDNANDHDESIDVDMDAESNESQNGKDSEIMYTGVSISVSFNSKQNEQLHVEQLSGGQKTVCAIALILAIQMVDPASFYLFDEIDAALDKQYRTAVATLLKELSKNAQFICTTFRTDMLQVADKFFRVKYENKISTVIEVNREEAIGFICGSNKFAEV

In the next assay the target is T2, Smc3 K38I R1222C (S. cerevisiae, UniProt P47037 1-1230, K38I | R1222C).
T2 construct: source: S. cerevisiae W303, in vivo, whole-cell extract
T2 sequence (looked up): T1 sequence (looked up) with K38I

In a further assay the target is T3, Smc3^QQ R1222C (S. cerevisiae, UniProt P47037 1-1230, K112Q | K113Q | R1222C).
T3 construct: Smc3, S. cerevisiae; source: S. cerevisiae W303, in vivo, whole-cell extract
T3 sequence (looked up): T1 sequence (looked up) with K112Q, K113Q

B1: Smc1 N1192C (natural protein, S. cerevisiae, UniProt P32908 1-1225, looked up)
chain: MGRLVGLELSNFKSYRGVTKVGFGESNFTSIIGPNGSGKSNMMDAISFVLGVRSNHLRSNILKDLIYRGVLNDENSDDYDNEGAASSNPQSAYVKAFYQKGNKLVELMRIISRNGDTSYKIDGKTVSYKDYSIFLENENILIKAKNFLVFQGDVEQIAAQSPVELSRMFEEVSGSIQYKKEYEELKEKIEKLSKSATESIKNRRRIHGELKTYKEGINKNEEYRKQLDKKNELQKFQALWQLYHLEQQKEELTDKLSALNSEISSLKGKINNEMKSLQRSKSSFVKESAVISKQKSKLDYIFKDKEKLVSDLRLIKVPQQAAGKRISHIEKRIESLQKDLQRQKTYVERFETQLKVVTRSKEAFEEEIKQSARNYDKFKLNENDLKTYNCLHEKYLTEGGSILEEKIAVLNNDKREIQEELERFNKRADISKRRITEELSITGEKLDTQLNDLRVSLNEKNALHTERLHELKKLQSDIESANNQEYDLNFKLRETLVKIDDLSANQRETMKERKLRENIAMLKRFFPGVKGLVHDLCHPKKEKYGLAVSTILGKNFDSVIVENLTVAQECIAFLKKQRAGTASFIPLDTIETELPTLSLPDSQDYILSINAIDYEPEYEKAMQYVCGDSIICNTLNIAKDLKWKKGIRGKLVTIEGALIHKAGLMTGGISGDANNRWDKEEYQSLMSLKDKLLIQIDELSNGQRSNSIRAREVENSVSLLNSDIANLRTQVTQQKRSLDENRLEIKYHNDLIEKEIQPKITELKKKLDDLENTKDNLVKEKEALQNNIFKEFTSKIGFTIKEYENHSGELMRQQSKELQQLQKQILTVENKLQFETDRLSTTQRRYEKAQKDLENAQVEMKSLEEQEYAIEMKIGSIESKLEEHKNHLDELQKKFVTKQSELNSSEDILEDMNSNLQVLKRERDGIKEDIEKFDLERVTALKNCKISNINIPISSETTIDDLPISSTDNEAITISNSIDINYKGLPKKYKENNTDSARKELEQKIHEVEEILNELQPNARALERYDEAEGRFEVINNETEQLKAEEKKILNQFLKIKKKRKELFEKTFDYVSDHLDAIYRELTKNPNSNVELAGGNASLTIEDEDEPFNAGIKYHATPPLKRFKDMEYLSGGEKTVAALALLFAINSYQPSPFFVLDEVDAALDITNVQRIAAYIRRHRNPDLQFIVISLKCTMFEKSDALVGVYRQQQENSSKIITLDLSNYAE
notes: Smc1, S. cerevisiae; source: S. cerevisiae W303, in vivo, whole-cell extract
In the case of B1, the values for the crosslinking efficiency in the assay with Smc3 R1222C, with Smc3 K38I R1222C and with Smc3^QQ R1222C were approximately 23%, 5% and 24%, respectively.
